Results: publication PMC10853775 (Nucleic Acids Research, 2023)

Target: the molecule itself
Assay: crystal structure

B1: human nucleoside diphosphate kinase (NDPKb) (enzyme)
chain: ANLERTFIAIKPDGVQRGLVGEIIKRFEQKGFRLVAMKFLRASEEHLKQHYIDLKDRPFFPGLVKYMNSGPVVAMVWEGLNVVKTGRVMLGETNPADSKPGTIRGDFCIQVGRNIIHGSDSVKSAEKEISLWFKPEELVDYKSCAHDWVYE
stoichiometry N: 6
